According to the DeepSol protein solubility set:

Test: soluble on expression in E. coli; label from the status in PepcDB or PDB records
For “MKIYYEHDADLGFILGKKVAVLGFGSQGHAHALNLKDSGVDVRVGLRKGSRSWEKAEAAGLRVLPVAEAVREADVVMVLLPDEKQAQVYREEVEPNLKEGGALAFAHGFNVHFGQIKPRKDLDVWMVAPKGPGHLVRSEYQKGSGVPALVAVHQDASGSAFPTALAYAKAIGAARAGVIATTFKDETETDLFGEQAVLCGGLTRLIRAGFETLVEAGYPPEMAYFETVHEVKLIVDLIYEAGLKGMRYSISNTAEYGDYTRGDLAVPLEETKRRMREILRQIQSGEFAREWMLENQVGSPVLEANRKRWAAHPIEEVGSRLRAMMPFLKARVMEEVG”, the “soluble on expression in E. coli” value was “soluble”.
With “MKKAGKKNSDAGKTFILISSSCSSCQKAIEFFDQNKISYVVENFYKKPISDKRFKDILSLSEDGTESLFSKRADQIKATNSVSVEELSISELIKLVRERPSLLRRPIIIQYNSSGIPKRMRIGYNSSEIKVFERKLIEPKPIIQQ” the “soluble on expression in E. coli” value was “soluble”.
With “MKKALQVAMFSLFTVIGFNAQANEHHHETMSEAQPQVISATGVVKGIDLESKKITIHHDPIAAVNWPEMTMRFTITPQTKMSEIKTGDKVAFNFVQQGNLSLLQDIKVSQ” the “soluble on expression in E. coli” value was “soluble”.
In the case of “MKKATMLTYLEEQLEKHLGDYEVGLDWDRKNHTIEVIVRLYAENNEQVAIDDVDGTLSEEEFIEFEDGLLFYNPQKSVVDDEEYLVTIPYEGKKGLRKAVLDGFIHYLKVVLDEGQSDLLDFLSDETAEVFELHWEPADFEAMIKKVAETEKEQWIAYPSY”, the “soluble on expression in E. coli” value is reported as “not soluble”.
In the case of “MKKEQVEKRTYLAVDIGASSGRIMKSQRLANGQITIEEIHRFKNGFHQKDGYQRWDMASLVHELLLGLQKVKQLGIKECFIGIDTWGVDYCLLDQSGQLLDEPIAYRDGRTEAAVTNFSKGYSLEKLYQQTGIQVQPFNTIFQLFVEEKERLAAASQLLLIPDYLGYVFTGKAVIEATNASTTQLLNAGTKQWESELLDFLGIDETLFPTLVEPGTILGDLQTAAFPDYDLPNATLITIASHDTASAILGTPGIGDDWAYISSGTWSLLGIETTVTTISAEAFQENYTNEWGAQNTIRFLKNIMGMWLIQEVARHQNYQYSYAELAALAEKEPAFQQFIDVNDPRFLNPGNMITELQAYCRETQQTVPESPGELARCIYDNLALCYSVELEKLAQLTGIERKITTLHVVGGGSNNRLLNQLTADVANVTVNAGPGEAIALGNLLMQMIATGELKDIPAARTCIQTSFPTEIYQANPIDSTIKNRYQAFMKRSSL”, the “soluble on expression in E. coli” value is reported as “not soluble”.
With “MKKFKNILFATQGLPGHSDALEQAIQLAYNNRGQLAGLIAFPAFPADLQRYQEPYEQSYLNTLMETVEACRSQHHIHKDEVPFPLMVEHSEQPAVAIIKSALNHHIDLLIKEAEPMTHSQQGFKALDMTLLRKCPCPVWLHRPLAKPKANRRVAVAIDPITTTEQQKALALRLLELSRSIANTCDSRLHIVSCWEYYLENYLHDQVWIQVEQQQIAEEIAQAKIRHEQALRQLIDESGITGELVIHHLHGKPDELIPEWVTQENIDILVMGTLARTGIAGFVIGNTAENIVQSIECSLVALKPEGFVSPIKNE” the “soluble on expression in E. coli” value was “soluble”.
With “MKKGINRVVLVGTGAVGCSYAYCMINQAVAEEFVLVDVNEAKAEGEAMDLSHAVPFAPAPTRVWKGSYEDCKDADLVVITAGLPQKPGETRLDLVEKNAKIFKQIVRSIMDSGFDGIFLIATNPVDILTYVTWKESGLPKERVIGSGTTLDSARFRYMLGEYFNIGPHNIHAYIIGEHGDTELPVWSHVSVGIQKLQTLLEKDNTYNQEDLDKIFINVRDAAYHIIERKGATYYGIGMSLLRVTKAILNDENSVLTVSAYLEGQYGQKDVYIGVPAVLNRGGVREILEVELSEDEELKFDHSVQVLKETMAPVL” the “soluble on expression in E. coli” value was “not soluble”.
In the case of “MKKIAIFAKVHDPRCQGVASELIAWLEARGLIPLVEAHLARHLGGRQGIVPEDIPVLADMAVVLGGDGTLISAARLIGSRQIPILGVNLGSLGFLTEITLDELYPVLESCLSGDFQVTERMMLTVSVERNGEEICSHRVLNDVVINKGALARIIDMETEVSGIRLTTYKADGLIISTPTGSTGYSLSANGPIVHPSLECITITPICPHTLTNRPIVLESSSGVTVWLRSKDEDVYLTLDGQVGMELKCGDAVHVRRAAHRTRLVMSRSRNYFEVLRTKLKWGERAAALEHHHHHH”, the “soluble on expression in E. coli” value is reported as “soluble”.
For “MKKILLVLNHSLAGFGSDEQAQLKPSGKKAPLGPGVTLLPFLQKQGAEIVATLYCGDQYYLENEEEVAKKFIGFAKKFHADAVLCGPAMHYPNFGEMAARLACKFNAAGIPAIAAMAEENPAVSHYYQQVPIVKMPKKGGIGLNNSFKQMAQLVVAKANGKETKQLEETSCF”, the “soluble on expression in E. coli” value was “not soluble”.
